Consider 41 sequences from the nanobody polyreactivity screen of Harvey et al. (2022).

This data set can be described thus: yeast display, Sf9 membrane polyspecificity reagent, FACS + sequencing; frameworks hold sequencing errors. An outline of the steps: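 Nanobodies from a synthetic yeast display library (Saccharomyces cerevisiae BJ5465), induced 36–48 hours with galactose, were stained 1 hour at 4 °C with 10% biotinylated, detergent-solubilized Sf9 membrane reagent, enriched on streptavidin microbeads, then FACS-sorted. Anti-HA (expression) and streptavidin (reagent binding) fluorescence set low and high (top ~1%) gates. Polyreactivity labels come from the gate of origin. Genes were colony-PCR amplified, MiSeq 2 × 250 sequenced and filtered by CDR length.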
Regarding “QVQLVESGGGLVQAGGSLRLSCAASGRIFRYYTMGWYRQAPGKERELVATISWNGSNTYYADSVKGRFTISRDNAKNTVYLQMNSLKPEDTAVYYCAAGVLPGLYNGARLFDYWGHGTQVTVSS”, the “polyreactivity (PSR sort gate)” value was “low polyreactivity”.

With “QVQLVESGGGLVQAGGSLRLSCAASGRIFSAYAMGWYRQAPGKEREFVAAITQSGGSTYYADSVKGRFTISRDNAKNTVYVQMNSLKPEDTAVYYCAAGDAYYTEALPFGEYDYWGQGTQVTVSS”, the “polyreactivity (PSR sort gate)” value is recorded as “low polyreactivity”.

Turning to “QVQLVESGGGLVQAGGSLRLSCAASGRIFSEYAMGGDRQAPGKERELVATITSGDSTIYADSVKGRFTISRDNAKNTVYVQMNSLKPDDTAVYYCNPDRFADYDYWGHGTQVTVSS”, the “polyreactivity (PSR sort gate)” value is “low polyreactivity”.

“QVQLVESGGGLVQAGGSLRLSCAASGRIFSFYTMGWYRQAPGKERELVAAITWSGGSTYYADSVKGRFTISRDNAKNTVYLQMNSLKPEDTAVYYCAADFYLGPTWYYYWGQGTQVTVSS”: the “polyreactivity (PSR sort gate)” value is reported as “high polyreactivity”.

As for “QVQLVESGGGLVQAGGSLRLSCAASGRIFSGNAMGWYRQAPGKERELVAAISWGGGRTYYADSVKGRFTISRDNAKNTVYLQMNSLKPEDTAVFYCNTVRQRARFTKVDYWGQGTQVTVSS”, the “polyreactivity (PSR sort gate)” value is “high polyreactivity”.

As for “QVQLVESGGGLVQAGGSLRLSCAASGRIFSGNGMGWYRQATGKERELVASITWSGTSTYYADSVKGGFTISRDNAKNTVYLQMNSLKPEDTAVYYCNTRTSRRIWYSKSGKRYDYWGQGTQVTVSS”, the “polyreactivity (PSR sort gate)” value is “high polyreactivity”.

On to “QVQLVESGGGLVQAGGSLRLSCAASGRIFSGYALGWYRQAPGKERELVAAISQRGGSTTYADSVKGRFTISRDNAKNTVYLQMNSLKPEDTAVYYCAKRYTYPSGYDYWGQGTEVTVSS”, for which the “polyreactivity (PSR sort gate)” value is reported as “low polyreactivity”.

For “QVQLVESGGGLVQAGGSLRLSCAASGRIFSGYAMGCYRQAPGKERELVAAITSRSGSTYYADSVKGRFTISRDNAKKTVYLQMNSLKPEDTAVYYCAAEYVRFYWYTSDYWGQGTQVTVSS”, the “polyreactivity (PSR sort gate)” value is reported as “low polyreactivity”.

Turning to “QVQLVESGGGLVQAGGSLRLSCAASGRIFSGYAMGSYRQAPGKERELVAAITSVGSTNYADSVKGLFTISRDNAKNTVYLQMNSLKPEDTAVFNCAAKRYRPKYEYYYWGLGTQVTVSS”, the “polyreactivity (PSR sort gate)” value is listed as “high polyreactivity”.

Regarding “QVQLVESGGGLVQAGGSLRLSCAASGRIFSGYAMGWYRQAPGKERELVAAITSRSGSTYYADSVKGRFTISRDNAKNTVYFQMNSLKPEDTAVYYCAAEYVRFYWYTSDYWGQGTQVTVSS”, the “polyreactivity (PSR sort gate)” value is “low polyreactivity”.

Consider “QVQLVESGGGLVQAGGSLRLSCAASGRIFSGYAMGWYRQAPGKERELVAAITSVGSTNYADSVKGRFTISRDNAKNTVYLQMNSLKPEDTAVYYCARYSYRGTNVRYDYWGQGTQVTVSS”, for which the “polyreactivity (PSR sort gate)” value was “high polyreactivity”.

Consider “QVQLVESGGGLVQAGGSLRLSCAASGRIFSHNAMGWYRQAPGKERELVAAISRSGGRTYYADSVKGRFTISRYNAKNTVYVQMKSLKPEDTAVYYCAADYRLKKSPGYSGEDDYWGQGTQVTVSS”, for which the “polyreactivity (PSR sort gate)” value was “high polyreactivity”.

As to “QVQLVESGGGLVQAGGSLRLSCAASGRIFSHYAMGWYRQAPGKERELVAAITSDGSTNYADSVKGRFTISRDNAKNTVYLQMNSLKPEDTAVYYCADYDYWGQGTQVTVSS”, the “polyreactivity (PSR sort gate)” value is “low polyreactivity”.

With “QVQLVESGGGLVQAGGSLRLSCAASGRIFSINVMGWYRHAPGKERELVAAISKRGGSTYYADSVKGRFTISRDNAKNTVYLQMNSLKPEDTAVYYCAARRHYTYGNGPSRGGQMDYWGQGTQVTVSS”, the “polyreactivity (PSR sort gate)” value is reported as “high polyreactivity”.

On to “QVQLVESGGGLVQAGGSLRLSCAASGRIFSIYTMGWSRQAPGKERELVAAISASDGSTYYADSVKGRFTISRDNAKNTVYLQMNSLKPEDTAVYYCAIDTYPQKVTYGSFAYDYWGEGTQVTVSS”, for which the “polyreactivity (PSR sort gate)” value is on record as “low polyreactivity”.

For “QVQLVESGGGLVQAGGSLRLSCAASGRIFSKNAMGWCRQAPGKERELVAGITSNSGSTYYADSVKGRFTISRDNAKNTVYLQMNSLIPEDTAVYYCAARFPHRHYLLYTYDYWGQGTQVTVSS”, the “polyreactivity (PSR sort gate)” value is given as “low polyreactivity”.

Turning to “QVQLVESGGGLVQAGGSLRLSCAASGRIFSKNAMGWYRKAPGKERELVAAISWSGGSTYYADSVKGRFTISRDNAKNTVYLQMNSLKPEDTAVYYCAADSPRYGGYGYWGQGTQVTVSS”, the “polyreactivity (PSR sort gate)” value is on record as “low polyreactivity”.

Regarding “QVQLVESGGGLVQAGGSLRLSCAASGRIFSKYAMGWYRQAPGKERELVASIRWRGDRTYYADSVKGRFTISRDNAKNTVYLQMNSLKPEDTAVYYCAVETLWQGSEYWVQGTQVTVSS”, the “polyreactivity (PSR sort gate)” value is “low polyreactivity”.

Consider “QVQLVESGGGLVQAGGSLRLSCAASGRIFSLYAMGWYRQAPGKERELVAAITWSSGSTYYADSVKGRFTISRDNAKNTVYLQMNSLKPEDTAVYYCAARVFTLLGYSYEYWGQGTQVTVSS”, for which the “polyreactivity (PSR sort gate)” value is on record as “low polyreactivity”.

Consider “QVQLVESGGGLVQAGGSLRLSCAASGRIFSNNAMGWYRQAPGKERELVAAITNSGGSTYYADSVKGRFTISRDNAKNTVYLQMNSLKPEDTAVYYCAADHLSVQYDVYWTYYYWGQGTQVTVSS”, for which the “polyreactivity (PSR sort gate)” value is on record as “low polyreactivity”.

For “QVQLVESGGGLVQAGGSLRLSCAASGRIFSPNAMGWYRQAPGKERELVAAITRGGSTNYADSVKGRFTISRDNAKNTVYLQMNSLKPEDTAVYYCAAQLAKTIRGRGYNSWGQGTQVTVSS”, the “polyreactivity (PSR sort gate)” value was “low polyreactivity”.

With “QVQLVESGGGLVQAGGSLRLSCAASGRIFSPYAMGWYRQAPGKERELVAAINSIGGSTYYADSVKGRFTISRDNAKNTVYLQMNSLKPEDTAVYYCAVKWYRLGLIRWGGYWGQGTQVTVSS”, the “polyreactivity (PSR sort gate)” value is recorded as “high polyreactivity”.

Consider “QVQLVESGGGLVQAGGSLRLSCAASGRIFSQYDMGWYRPAPGKERELVAAISGGVGTNYADSVKGRFTISRDNAKNTVYLQMNSLKPEDTAVYYCAADYSFERSEYEYWGQGTQVTVSS”, for which the “polyreactivity (PSR sort gate)” value was “low polyreactivity”.

Regarding “QVQLVESGGGLVQAGGSLRLSCAASGRIFSRNAMGWYRPAPGKERELVAAISWRGGRTYYADSVKGRFTISRDNAKNTVYLQMNSLKPEDTAVYYCNAVYRLSHYDLDYWGQGTQVTVSS”, the “polyreactivity (PSR sort gate)” value was “high polyreactivity”.

As for “QVQLVESGGGLVQAGGSLRLSCAASGRIFSRNAMGWYRQAPGKERELVAAISRRGGSTSYADSVKGRFTISRDNAMNTVYLQMNSLKPEDTAVYYCAAEDEYYCTRGYWYSRYDYWGQGTQVTVSS”, the “polyreactivity (PSR sort gate)” value is on record as “high polyreactivity”.

“QVQLVESGGGLVQAGGSLRLSCAASGRIFSRNTMGWYRQAPGKEREIVAAISQSGGRTYYADSVKGRFTISRDNAKNPVYLQMNSLNPEDTEVYYCNAQFARSSGFNYWGQGTQVTVSS”: the “polyreactivity (PSR sort gate)” value is recorded as “high polyreactivity”.

Take “QVQLVESGGGLVQAGGSLRLSCAASGRIFSRYALGWYRQAPGKERELVAGITRSGTTTYYADSVKGRFTISRDNAKNTVYLQMNSLKPEDTAVYYCAAPPIGPNLYDYWGQGTQVTVSS”: the “polyreactivity (PSR sort gate)” value is listed as “high polyreactivity”.

On to “QVQLVESGGGLVQAGGSLRLSCAASGRIFSRYAMGGYRQAPGTERELVAAINNGGSTYYADSVKGRFTISRDNAKNTVYLQMNSLKPEDTAVYYCAKLWWSNFKPVEYWGQGTQVTVSS”, for which the “polyreactivity (PSR sort gate)” value was “low polyreactivity”.

Regarding “QVQLVESGGGLVQAGGSLRLSCAASGRIFSRYAMGWYRQAPGKERELVAAISCNGCSTYYADSVKGRFTISRDNAKNTVYLQMNSLKPEDTAVYYCAAYRPGPYAAYGYWGQGTQVTVSS”, the “polyreactivity (PSR sort gate)” value is “high polyreactivity”.

“QVQLVESGGGLVQAGGSLRLSCAASGRIFSRYAMGWYRQAPGKERELVAAITRGGSTYYADSVKGRFTISRDNAKNTVYLQMNSLKPEDTAVYYCAKDGYRPDDYGYWGQGTQVTVSS”: the “polyreactivity (PSR sort gate)” value is recorded as “high polyreactivity”.

Consider “QVQLVESGGGLVQAGGSLRLSCAASGRIFSRYTMGWYRQAPGKERELVAAISSRGGSTYYADSVKGRFTISRDNAKNTVYLQMNSLKREDTAVYYCNTPSYSGSSPYDHWGQGTQVTVSS”, for which the “polyreactivity (PSR sort gate)” value was “high polyreactivity”.

As for “QVQLVESGGGLVQAGGSLRLSCAASGRIFSRYTMGWYRQAPGKERELVAAISSRGGSTYYADSVKVRFTISRDNAKNTVYLQMNSLKPEDTAVYYCNTPSYSGSSPYDHWGQGTQVTVSS”, the “polyreactivity (PSR sort gate)” value was “high polyreactivity”.

“QVQLVESGGGLVQAGGSLRLSCAASGRIFSRYVMGWYRQAPGKERELVAAISWNGGSTYYADSVKGRFRISRDNAKNTVYFQMNSLIPEDTAVYYCAARVRVTGTYYTKYDYWGQGTQVTVSS”: the “polyreactivity (PSR sort gate)” value was “high polyreactivity”.

As to “QVQLVESGGGLVQAGGSLRLSCAASGRIFSSNAMGWYRQAPGKERELVAAITKSGGGTYYADSVKGRFTISRDNAKNTVYLQMNSLKPEDSAVYYCAADHGRPYFSYDYWGQGTQVTVSS”, the “polyreactivity (PSR sort gate)” value is reported as “low polyreactivity”.

“QVQLVESGGGLVQAGGSLRLSCAASGRIFSSNAMGWYRQAPGTERELVAAITSGGSTYADSVKGRFTISRDNAKNTVYLQMNSLKPEDTAVYYCATRQGWYGWYGYWGQGTQVTVSS”: the “polyreactivity (PSR sort gate)” value is “high polyreactivity”.

As for “QVQLVESGGGLVQAGGSLRLSCAASGRIFSSYAMGWYRQAPGKERELVAAISRGGSTYYADSVKGRFTISRDNAKNTVYLQMNSLKPEDTAVYYCAAASYSYSERRYYYWGQGTQVTVSS”, the “polyreactivity (PSR sort gate)” value is “high polyreactivity”.

Turning to “QVQLVESGGGLVQAGGSLRLSCAASGRIFSSYVMGLYRQAPGKERELVAAIRWSGGSTYYADSVKGRFTISRDNAKNTVYLQMNSLKPEDTAVYYCAAEVYRYYATGYGYWGQGTQVTVSS”, the “polyreactivity (PSR sort gate)” value is listed as “high polyreactivity”.

Regarding “QVQLVESGGGLVQAGGSLRLSCAASGRIFSTNARGWYRQAPGKQRELVAVITGIGGITYYADSVKGRFTISSDNAKNTVYLKMNSLKPEDTAVYYCGADPISEFYWGVKDRYDYWGQGTQVTVSS”, the “polyreactivity (PSR sort gate)” value is “low polyreactivity”.

Take “QVQLVESGGGLVQAGGSLRLSCAASGRIFSVKVMGWYRQAPGKERELVAAITWSVGSTYYADSVKGRFTISRDNPKNTVSLQMNSLKREDTAVYYCAARGPPVYGRVGGYHYWGQGTQVTVSS”: the “polyreactivity (PSR sort gate)” value is recorded as “low polyreactivity”.

Turning to “QVQLVESGGGLVQAGGSLRLSCAASGRIFSVYAMGWYRQAPGTERELVAVITTSGGSTYYADSVKGRFTISRGNAKNTVYLQMNSLKPEDTAVYYCNAEPWSYAIGSYEYWGQGTQVTVSS”, the “polyreactivity (PSR sort gate)” value is reported as “high polyreactivity”.

Take “QVQLVESGGGLVQAGGSLRLSCAASGRIFSVYAMVWYRQAPGKEREFVAAITKGGVGTYYADSVKGRFTISRDNAKNTVYLQMNSLKPEDTAVYYFAARHYYGADRYYSWGQGTQVTVSS”: the “polyreactivity (PSR sort gate)” value was “high polyreactivity”.
